B1: ZNF449 (parent)
chain: RIHSGEEPHKCPECGKRFLRSSDL
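Note: lentivirally expressed fusions sorted by FACS into six bins by GFP to DsRed ratio, PSI derived from sequencing read proportions per bin multiplied by bin number.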

Variants of B1 are the subject of this series. Description: protein stability index of a GFP-peptide fusion (GPS, HEK-293T) (PSI 1-6); higher = more stable. The settings on record: c terminus: a fixed tail appended.
Consider RIHSGEEPHKCPETGKRFLRSSDL [C14T], for which the protein stability index came out at 4.69.
The result for RIHSGEEPHKCPEDGKRFLRSSDL [C14D] reads 4.58.
For the variant RIHSGEEPHKCPEPGKRFLRSSDL [C14P], the protein stability index amounted to 4.06.
The result for RIHSGEEPHKCPECGQRFLRSSDL [K16Q] reads 3.66; that for RIHSGEEPHKCPECGTRFLRSSDL [K16T], 3.68; that for RIHSGEEPHKCPECGFRFLRSSDL [K16F], 2.55.
RIHSGEEPHKCPECGVRFLRSSDL [K16V]: the protein stability index was 2.37.
On to RIHSGEEPHKCPECGGRFLRSSDL [K16G], for which the protein stability index was determined as 3.13.
The result for RIHSGEEPHKCPECGMRFLRSSDL [K16M] reads 2.61; that for RIHSGEEPHKCPECGCRFLRSSDL [K16C], 3.32; that for RIHSGEEPHKCPECGSRFLRSSDL [K16S], 3.68.
The result for RIHSGEEPHKCPECGPRFLRSSDL [K16P] reads 3.82; that for RIHSGEEPHKCPECGRRFLRSSDL [K16R], 3.9; that for RIHSGEEPHKCPECGDRFLRSSDL [K16D], 4.41.
The result for RIHSGEEPHKCPECGHRFLRSSDL [K16H] reads 3.19.
As for RIHSGEEPHKCPECGLRFLRSSDL [K16L], the protein stability index is 2.78.
The result for RIHSGEEPHKCPECGERFLRSSDL [K16E] reads 3.99.
To RIHSGEEPHKCPECGWRFLRSSDL [K16W] belongs 2.69.
With RIHSGEEPHKCPECGNRFLRSSDL [K16N], the protein stability index was determined as 3.58.
The result for RIHSGEEPHKCPECGIRFLRSSDL [K16I] reads 2.93; that for RIHSGEEPHKCPECGYRFLRSSDL [K16Y], 3.77; that for RIHSGEEPHKCPECGKWFLRSSDL [R17W], 3.97.
To RIHSGEEPHKCPECGKDFLRSSDL [R17D] belongs 3.71; to RIHSGEEPHKCPECGKCFLRSSDL [R17C], 3.74; to RIHSGEEPHKCPECGKIFLRSSDL [R17I], 3.72.
On to RIHSGEEPHKCPECGKYFLRSSDL [R17Y], for which the protein stability index amounted to 3.58.
In the case of RIHSGEEPHKCPECGKNFLRSSDL [R17N], the protein stability index amounted to 3.4.
To RIHSGEEPHKCPECGKAFLRSSDL [R17A] belongs 3.61.
The result for RIHSGEEPHKCPECGKEFLRSSDL [R17E] reads 4.2.
To RIHSGEEPHKCPECGKQFLRSSDL [R17Q] belongs 3.63.
For the variant RIHSGEEPHKCPECGKTFLRSSDL [R17T], the protein stability index is 3.97.
To RIHSGEEPHKCPECGKVFLRSSDL [R17V] belongs 3.17; to RIHSGEEPHKCPECGKMFLRSSDL [R17M], 3.59.
To RIHSGEEPHKCPECGKFFLRSSDL [R17F] belongs 3.2; to RIHSGEEPHKCPECGKGFLRSSDL [R17G], 3.12; to RIHSGEEPHKCPECGKSFLRSSDL [R17S], 4.
The result for RIHSGEEPHKCPECGKHFLRSSDL [R17H] reads 4.23; that for RIHSGEEPHKCPECGKKFLRSSDL [R17K], 4.13; that for RIHSGEEPHKCPECGKPFLRSSDL [R17P], 3.66.
Turning to RIHSGEEPHKCPECGKLFLRSSDL [R17L], the protein stability index was 3.08.
To RIHSGEEPHVCPECGKRFLRSSDL [K10V] belongs 4.17; to RIHSGEEPHSCPECGKRFLRSSDL [K10S], 3; to RIHSGEEPHMCPECGKRFLRSSDL [K10M], 3.17.
To RIHSGEEPHNCPECGKRFLRSSDL [K10N] belongs 3.42; to RIHSGEEPHECPECGKRFLRSSDL [K10E], 3.57; to RIHSGEEPHRCPECGKRFLRSSDL [K10R], 3.55.
To RIHSGEEPHPCPECGKRFLRSSDL [K10P] belongs 3.7.
Regarding RIHSGEEPHHCPECGKRFLRSSDL [K10H], the protein stability index turned out to be 2.95.
To RIHSGEEPHGCPECGKRFLRSSDL [K10G] belongs 3.82; to RIHSGEEPHACPECGKRFLRSSDL [K10A], 3.35; to RIHSGEEPHWCPECGKRFLRSSDL [K10W], 3.72.
The result for RIHSGEEPHDCPECGKRFLRSSDL [K10D] reads 4.19; that for RIHSGEEPHLCPECGKRFLRSSDL [K10L], 3.96; that for RIHSGEEPHQCPECGKRFLRSSDL [K10Q], 3.39.
Take RIHSGEEPHTCPECGKRFLRSSDL [K10T]: the protein stability index stood at 3.82.
In the case of RIHSGEEPHYCPECGKRFLRSSDL [K10Y], the protein stability index is 3.94.
The result for RIHSGEEPHICPECGKRFLRSSDL [K10I] reads 3.74; that for RIHSGEEPHKCPNCGKRFLRSSDL [E13N], 3.43; that for RIHSGEEPHKCPTCGKRFLRSSDL [E13T], 3.41.
Consider RIHSGEEPHKCPWCGKRFLRSSDL [E13W], for which the protein stability index was determined as 3.86.
To RIHSGEEPHKCPCCGKRFLRSSDL [E13C] belongs 3.71.
Take RIHSGEEPHKCPPCGKRFLRSSDL [E13P]: the protein stability index was 3.6.
To RIHSGEEPHKCPHCGKRFLRSSDL [E13H] belongs 3.34; to RIHSGEEPHKCPFCGKRFLRSSDL [E13F], 3.77.
Turning to RIHSGEEPHKCPLCGKRFLRSSDL [E13L], the protein stability index amounted to 3.38.
As to RIHSGEEPHKCPICGKRFLRSSDL [E13I], the protein stability index is 3.26.
To RIHSGEEPHKCPGCGKRFLRSSDL [E13G] belongs 3.21.
With RIHSGEEPHKCPMCGKRFLRSSDL [E13M], the protein stability index came out at 2.92.
To RIHSGEEPHKCPDCGKRFLRSSDL [E13D] belongs 2.59; to RIHSGEEPHKCPRCGKRFLRSSDL [E13R], 2.84.
The result for RIHSGEEPHKCPQCGKRFLRSSDL [E13Q] reads 2.13; that for RIHSGEEPHKCPACGKRFLRSSDL [E13A], 2.72.
To RIHSGEEPHKCPVCGKRFLRSSDL [E13V] belongs 3.44; to RIHSGEEPHKCPSCGKRFLRSSDL [E13S], 3.63.
For RIHSGEEPHKCPYCGKRFLRSSDL [E13Y], the protein stability index stood at 3.54.
Turning to RIHSGEEPHKCPKCGKRFLRSSDL [E13K], the protein stability index came out at 2.72.
To RIHSGEEPHKCPECHKRFLRSSDL [G15H] belongs 2.87.
To RIHSGEEPHKCPECEKRFLRSSDL [G15E] belongs 4.24.
To RIHSGEEPHKCPECWKRFLRSSDL [G15W] belongs 2.87; to RIHSGEEPHKCPECDKRFLRSSDL [G15D], 3.27; to RIHSGEEPHKCPECIKRFLRSSDL [G15I], 3.6.
As to RIHSGEEPHKCPECCKRFLRSSDL [G15C], the protein stability index was 3.28.
To RIHSGEEPHKCPECSKRFLRSSDL [G15S] belongs 3.76.
The result for RIHSGEEPHKCPECPKRFLRSSDL [G15P] reads 4.37; that for RIHSGEEPHKCPECAKRFLRSSDL [G15A], 3.9.
The result for RIHSGEEPHKCPECYKRFLRSSDL [G15Y] reads 3.44.
Consider RIHSGEEPHKCPECTKRFLRSSDL [G15T], for which the protein stability index turned out to be 3.89.
For RIHSGEEPHKCPECFKRFLRSSDL [G15F], the protein stability index came out at 3.48.
To RIHSGEEPHKCPECMKRFLRSSDL [G15M] belongs 3.88; to RIHSGEEPHKCPECNKRFLRSSDL [G15N], 3.52; to RIHSGEEPHKCPECVKRFLRSSDL [G15V], 3.25.
As for RIHSGEEPHKCPECQKRFLRSSDL [G15Q], the protein stability index is 3.85.
For the variant RIHSGEEPHKCPECKKRFLRSSDL [G15K], the protein stability index was 3.63.
The result for RIHSGEEPHKCPECLKRFLRSSDL [G15L] reads 3.58.

The values are drawn from the supplement of paper PMC10567573.
